Measurements published in the supplement of paper PMC9170038.

Test system: MS2 coat protein
Experiment: apparent KD of MS2 coat protein; designed switch direction (-1 OFF switch, 1 ON switch): 1; higher = weaker reporter binding
Outline: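 On Illumina chips, designed RNA switches with common flanks were made by stalled E. coli RNA polymerase. Titrations with SNAP-549-labelled MS2 coat protein, doubling from 0.7 or 1.5 nM to 3 µM, were done with no input, with 200 uM small-molecule ligand, or with an oligonucleotide input. Apparent KD is the median per design over clusters, from curve fits of normalised cluster fluorescence.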

[1] = input ligand: microRNA oligo, concentration not stated
[2] = Eterna round: R95, input ligand: FMN 200 uM
[3] = Eterna round: R95, input ligand: microRNA oligo, concentration not stated
[4] = Eterna round: R95, input ligand: none

Sequence	apparent KD of MS2 coat protein (input ligand: FMN 200 uM) [nM]	apparent KD of MS2 coat protein [1] [nM]	apparent KD of MS2 coat protein (input ligand: none) [nM]	apparent KD of MS2 coat protein [2] [nM]	apparent KD of MS2 coat protein [3] [nM]	apparent KD of MS2 coat protein [4] [nM]
UAAAUAAUGUAAGGAUAUACAUGAGGAAUUCUCGUAGAAGGUACAUGACAUGAGGAUCACCCAUGUAUCGCUCAGAAGAGCGUA [Mat - Same State NG 1 - JL mod - D28] (Eterna round: R96, puzzle: Same State NG 1)	1660	39.9	298			
AAGAAAGACGCAGGAUAUCAGUGCAGACCGCACUGAGAAGGGUGAGACAUGAGGAUCACCCAUGUAACACGACAAAACGUCGUG [Anritiat] (Eterna round: R96, puzzle: Same State NG 1)	111	118	13.9			
GUGGUCAGACAUGAGGAUCACCCAUGUGGAAUAAAUAACACACAGGAUAUCGAAUAUAAAAUAUACGAGAAGGGUGGAUUGGUG (Eterna round: R96, puzzle: Same State NG 3)		334				
GGCAUGCGGCGUACCGUAUGCUGGUAUGUACAUGAGGAUCACCCAUGUCAUGUACAGGCUUGUUGCUCGUCUUAUUG [JL-shm-2.41 JL mod] (puzzle: Sensor for hsa-mir-208a)				137	34.3	158
GGAGCCGGCACUGAGGAUAUUCAUAUUAAAACAUGAGGAUCACCCAUGUAGGCCAGAAGGCCUUGGGAGAAGGCGGGUCGGCCCG [Bibimoar - 3] (puzzle: Same State 2)				27.2	360	647
GGAUGAUAGACAGGAUAUUGAUUGUAAUUAUGUCAAGAAGGGUCUUUGAUUUAAACGACCAGUUACAUGAGGAUCACCCAUGUU [JR_SSNG1_Sub029] (Eterna round: R96, puzzle: Same State NG 1)		24.1				
GUUAUACAUGAGGAUCACCCAUGUCAAUGUAGUCGAGGAUAUGGGCAGCUGUGAGGCGUACUAGAAGGCGAAGAGG [JL-ss1-3.10 ViennaUCT mod] (puzzle: Same State 1)				86.1	198	170
GUAGCAUACCGAGGAUAUUCAUAACAUGAGGAUCACCCAUGUAUUAGGCCACAUUAGUGGCCUUGGGAGAAGGCGGAAUGCUAC [Xeonanis - 20 Mod45] (Eterna round: R96, puzzle: Same State NG 2)	12.1	11.9	16.9			
GGAGAACAUGAGGAUCACCCAUGUAAGAGAGUUGUAGGAUAUGUGAGGAGCAGAGGAUGAACAGAAGGACAUGGAG [JR_SS!_Sub070] (puzzle: Same State 1)				42	49.3	56.4
AUAACAAUGGCAGGAUAUGGGAUUGGAAGUGUUCCAGAAGGGCCAUAACGGCGAUGGACAUGAGGAUCACCCAUGUCUUAGCCU [MOD2 Powerstrip SSNG 1.4] (Eterna round: R96, puzzle: Same State NG 1)	14.3	6.26	15			
AGGGCCGCGGCACAGGAUAUGCACAGGUUCACAUGAGGAUCACCCAUGUGCUCUAGAUAACUUAAGCAGAAGGGUGUCAUGGUAA [Biarrace] (puzzle: Same State 2)				11.2	12	14.1
GAGGCACAUGAGGAUCACCCAUGUGGGUAGAACAUAGGAUAUCACCAACAAAUUACCCGGUGAGAAGGAUGAUGCC [Zalaarza] (puzzle: Same State 1)					151	
AGGCCAUCGGGAGGAUAUGGCACCUUAUUGGUGCCAGAAGGUCCAACAUGAGGAUCACCCAUGUGGGAGUGGUCUAAUGACCAC [Fiskers NG1(ss) - 4] (Eterna round: R96, puzzle: Same State NG 1)	64.3	58.1	64			
GGAGCCGGCACCGAGGAUAUUCAUAUUAAAACAUGAGGAUCACCCAUGUAGAGCAGAAGCUCUUGGGAGAAGGCGGAUCGGCUCG [Xeonanis - 27] (puzzle: Same State 2)				28.4	306	549
GGAAUAUUUACAGGAUAUCAUUUGUAAAUUCGAUGAGAAGGGUAGAUGUCUUACACGACUUGUUACAUGAGGAUCACCCAUGUU [SameState NG1 #8] (Eterna round: R96, puzzle: Same State NG 1)		34				
GUGCUCGUGUGAGGAUAUGCUUCCGGGUCGGCUGCAGAAGGUACUAUUAUACAUGAGGAUCACCCAUGUCGCUUUUCUCCGGUG [salish99_SSNG1_r04_917] (Eterna round: R96, puzzle: Same State NG 1)	48.2	29.2	38.4			

Sequence	apparent KD of MS2 coat protein (input ligand: FMN 200 uM) [nM]	apparent KD of MS2 coat protein [1] [nM]	apparent KD of MS2 coat protein (input ligand: none) [nM]	apparent KD of MS2 coat protein [2] [nM]	apparent KD of MS2 coat protein [3] [nM]	apparent KD of MS2 coat protein [4] [nM]
AACCCAGUGGAAGGAUAUGGCACCUUAUUGGUGCCAGAAGGUCCUAACAUGAGGAUCACCCAUGUGGGCCGGUCGAAAGACCGG [Fiskers NG1ss - 10] (Eterna round: R96, puzzle: Same State NG 1)	101	242	338			
AUUACGAGCGUAGGAUAUGGGAAAGGAAGUGUACCAGAAGGACGAAUACAGCGUCCGGACAUGAGGAUCACCCAUGUAGGACGC [PowerStrip SSNG 1.19] (Eterna round: R96, puzzle: Same State NG 1)	11.5	21.8	26.1			
UUGCUCGUGUGAGGAUAUGCCGCCGUUUCGGCUGCAGAAGGUACUCUGUUACAUGAGGAUCACCCAUGUCUCUGUUGUUUCGUG [salish99_SSNG1_r04_939] (Eterna round: R96, puzzle: Same State NG 1)		34.7				
UCACCUAUCGACAUGAGGAUCACCCAUGUGGAUUGAGCUUCCAAGGAUAUCGGCGCACAACCCAUCGAGAAGGUGGAAAGAUAC [Eternabot solution 32] (Eterna round: R96, puzzle: Same State NG 3)	16.6	12.3	18			
UGUUGUAUUACAGGAUAUCUAUUAAUUUUAUUUAGAGAAGGGUAUUCACAUGAGGAUCACCCAUGUAUAUACGAGGAAGUUGUG [JMF's solution 13] (Eterna round: R96, puzzle: Same State NG 1)		38.7				
ACAUGAGAGUGAGGAUAUAUUGUACCUACAUGUGACAUGAGGAUCACCCAUGUGGUAAGUAUGACAUAGAAGGCACAGAUAUGU [Equivalance 80 - Jieux - Same State NG 2] (Eterna round: R96, puzzle: Same State NG 2)	35.6	45.2	70.9			
AUGCCAAAUGGAGGAUAUGGAGCCUUAUUGGCUCCAGAAGGUCAAACAUGAGGAUCACCCAUGUGGCAGUGGUCUAAUGACCAC [Eli NG1ss - 45] (Eterna round: R96, puzzle: Same State NG 1)	110	192	368			
ACGUCGAGAUCACAGGAUAUACUCACAUCUACAUGAGGAUCACCCAUGUAGCGGUAUUCCGGUGCGUAGAAGGGUGAUCGACGAC [Same State 2 - Mod of Artece v.5] (puzzle: Same State 2)				14.6	9.7	11.9
UUGUUUUGAAAUUAACAUGAGGAUCACCCAUGUCUUGACACAGAGGAUAUACAUGUUUGUUUGUAGUAGAAGGCUGUUUAUUGU [JR_SSNG3_Sub097] (Eterna round: R96, puzzle: Same State NG 3)	57	98	135			
AGUCCAGCCUGAGCUGGACAAAAGCAUGUACAUGAGGAUCACCCAUGUUCAUGUACAAGCUUUUUGCUCGUCGUAAU [Mat - hsa-mir-208a - Mod of JL - 48] (puzzle: Sensor for hsa-mir-208a)				501	16.7	611
UGAACCGUCACAGGAUAUCAUGCGAAAAUUGCGUGAGAAGGGUGGAUGUUGUGCUCAAAGUUCUACAUGAGGAUCACCCAUGUU [SameState NG1 #44] (Eterna round: R96, puzzle: Same State NG 1)	61.9	33.5	60.5			
UUAAUGAUGAUAGGAUAUACAUGAGGAAUCCUCGUAGAAGGAUCAUGACAUGAGGAUCACCCAUGUAACGCUCAGAAGAGCGUA [Mat - Same State NG 1 - JL mod - D42] (Eterna round: R96, puzzle: Same State NG 1)	205	37	78.3			
GUAAAGAAAUAAGGAUAUUGAAUACAUAUGUUUAACAUGAGGAUCACCCAUGUGGGUUGCGGUAUCGAGAAGGUAUAAUAAAAG [Mat - Same State NG 2 - JL mod - D8] (Eterna round: R96, puzzle: Same State NG 2)	162	171	168			
GUUACAUGAGGAUCACCCAUGUAUGUGUGGGAGUAAGUGUCUUAGGAUAUCUGGUAUUUAAUUUAAGAGAAGGAAGAUUGUUGU [JMF's solution 30] (Eterna round: R96, puzzle: Same State NG 3)	91.9	63.7	77.3			
GCGAGCGUACUUGCAACAUGAGGAUCACCCAUGUUAACUGGACAGGAUAUGGUACCGUUUCGGUACCAGAAGGGUUCAUCAUGU [JL SSNG3 3.67] (Eterna round: R96, puzzle: Same State NG 3)	74.1	147	183			
